Assay [1] has as its target T1, Human CD3ε stalk-Fc(knob)-Avi/CD3δ stalk-Fc(hole) (human).
T1 construct: Heterodimer of CD3 delta and CD3 epsilon ectodomains fused to human Fc with knob-into-hole; also called human CD3ε/δ; CD3 antigen
The assay can be described thus: SPR on immobilized human CD3ε/δ after stress, relative to sample kept at -80°C pH 6. A digest of the protocol:
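TCB antibodies (1.0 mg/ml) were stressed 14 days at 37° C pH 7.4 (PBS) or 40° C pH 6 (His/NaCl), referenced to -80° C pH 6 samples. On biotinylated CD3ε/δ at 25° C, 2 μg/ml was injected 30 s; response 5 s post-injection was normalized to anti-huIgG capture.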

Assay [2] deals with human CD3 on cells (CD3ε) (human, UniProt P07766 23-207). In words: cell-based or functional assay.
Chain of human CD3 on cells (CD3ε) (P07766 23-207 limits assumed): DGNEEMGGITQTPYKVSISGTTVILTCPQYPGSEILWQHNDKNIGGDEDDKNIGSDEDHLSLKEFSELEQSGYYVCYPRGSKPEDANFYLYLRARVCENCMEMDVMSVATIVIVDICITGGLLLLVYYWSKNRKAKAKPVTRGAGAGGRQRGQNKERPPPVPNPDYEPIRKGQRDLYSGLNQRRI
Assay [3] addresses T1, Human CD3ε stalk-Fc(knob)-Avi/CD3δ …. The assay can be described thus: SPR, TCB captured by anti-PG antibody, antigen as analyte, 25°C. A general note: Surface plasmon resonance follows binding to a sensor surface in real time, without labels.
For assay [4], the target named is T2, Cynomolgus CD3ε stalk-Fc(knob)-Avi/CD3δ stalk-Fc(hole) (cynomolgus).
T2 construct: also called cynomolgus CD3ε/δ
Described as above.

Assay [5] has as its target T1, Human CD3ε stalk-Fc(knob)-Avi/CD3δ …. The description is as above. This is another data set of the same source.
For assay [6] the target is unchanged. In words: SPR, monovalent IgG captured by anti-PG antibody, antigen as analyte, 25°C.
Assay [7] has the same target. In words: SPR on immobilized human CD3ε/δ after stress, relative to sample kept at -80°C pH 6. As for the experimental part:
All SPR experiments were performed on a Biacore T200 instrument (GE Healthcare) at 25° C. with HBS-P+ (10 mM HEPES, 150 mM NaCl pH 7.4, 0.05% Surfactant P20) as running and dilution buffer. Biotinylated human CD3ε/δ (see Example 3, SEQ ID NOs 41 and 42) as well as biotinylated anti-huIgG (Capture Select, Thermo Scientific, #7103262100) were immobilized on a Series S Sensor Chip SA (GE Healthcare, #29104992), resulting in surface densities of at least 1000 resonance units (RU). Anti-CD3 antibodies with a concentration of 2 μg/ml were injected for 30 s at a flow rate of 5 μl/min, and dissociation was monitored for 120 s. The surface was regenerated by injecting 10 mM glycine pH 1.5 for 60 s. Bulk refractive index differences were corrected by subtracting blank injections and by subtracting the response obtained from a blank control flow cell. For evaluation, the binding response 5 seconds after injection end was taken. To normalize the binding signal, the CD3 binding was divided by the anti-huIgG response (the signal (RU) obtained upon capture of the CD3 antibody on the immobilized anti-huIgG antibody). The relative binding activity was calculated by referencing each temperature stressed sample to the corresponding, non-stressed sample.
The experiment was performed as described in Example 4, using the monovalent IgG molecules prepared in Example 19.
This is another data set of the same source.

Assay [8] has the same target. In words: SPR, monovalent IgG captured by anti-PG antibody, antigen as analyte, 25°C. As to the method:
(§1) SPR experiments were performed as described in Example 3, with the monovalent IgG molecules prepared in Example 19.
(§2) To analyze the interaction to CD3, IgG molecules were captured for 240 s at 50 nM with a flow rate of 5 μl/min. Human and cynomolgus CD3F stalk-Fc(knob)-Avi/CD36-stalk-Fc(hole) were passed at a concentration of 0.061-250 nM with a flow rate of […] through the flow cells for 300 s. The dissociation was monitored for 800 s.
The source holds these as a separate data set.

In assay [9] the target is T2, Cynomolgus CD3ε stalk-Fc(knob)-Avi/CD3δ …. The assay is described as above. As for the experimental part:
as §1, §2

Where two headings read alike, the source gives them in different places. A value given as a limit tells only on which side of the number the result lay.

Broadly, the Kd is the equilibrium constant for the complex coming apart. A low value points to tighter binding. The term koff denotes the rate constant with which the complex falls apart. A word on the kon: it is the second-order rate constant of association. Higher therefore signals fast association.

B1: CEACAM5-TCB, CEACAM5 CD3 variant P033.078 (bispecific antibody, human IgG1, kappa, L234A L235A)
heavy 1: not shown
heavy 2: QVQLVQSGAEVKKPGSSVKVSCKASGFNIKDTYMHWVRQAPGQGLEWMGRIDPANGNSKYVPKFQGRVTITADTSTSTAYMELSSLRSEDTAVYYCAPFGYYVSDYAMAYWGQGTLVTVSSASTKGPSVFPLAPSSKSTSGGTAALGCLVEDYFPEPVTVSWNSGALTSGVHTFPAVLQSSGLYSLSSVVTVPSSSLGTQTYICNVNHKPSNTKVDEKVEPKSCDKTHTCPPCPAPEAAGGPSVFLFPPKPKDTLMISRTPEVTCVVVDVSHEDPEVKFNWYVDGVEVHNAKTKPREEQYNSTYRVVSVLTVLHQDWLNGKEYKCKVSNKALGAPIEKTISKAKGQPREPQVCTLPPSRDELTKNQVSLSCAVKGFYPSDIAVEWESNGQPENNYKTTPPVLDSDGSFFLVSKLTVDKSRWQQGNVFSCSVMHEALHNHYTQKSLSLSP
light 1: EIVLTQSPATLSLSPGERATLSCRAGESVDIFGVGFLHWYQQKPGQAPRLLIYRASNRATGIPARFSGSGSGTDFTLTISSLEPEDFAVYYCQQTNEDPYTFGQGTKLEIKRTVAAPSVFIFPPSDRKLKSGTASVVCLLNNFYPREAKVQWKVDNALQSGNSQESVTEQDSKDSTYSLSSTLTLSKADYEKHKVYACEVTHQGLSSPVTKSFNRGEC
light 2: EVQLLESGGGLVQPGGSLRLSCAASGFTFESYAMNWVRQAPGKGLEWVSRIRSKYNEYATYYADSVKGRFTISRDDSKNTLYLQMNSLRAEDTAVYYCVRASNFPSSFVSYFGYWGQGTLVTVSSASVAAPSVFIFPPSDEQLKSGTASVVCLLNNFYPREAKVQWKVDNALQSGNSQESVTEQDSKDSTYSLSSTLTLSKADYEKHKVYACEVTHQGLSSPVTKSFNRGEC
notes: 2+1 IgG CrossFab, inverted; human IgG1 Fc, knob-into-hole, PGLALA; also called P033.078 in CEACAM5-TCB format
Consider B1, for which, in assay [1], the “binding activity [%] after 2 weeks at pH 6.0/40°C” value came to 101% and the “binding activity [%] after 2 weeks at pH 7.4/37°C” value was found to be 99%. Further, in assay [2], the “EC50 24 h (pM), T-cell mediated lysis of CEACAM5-expressing LS180 tumor cells” value turned out to be 58 pM and the “EC50 48 h (pM), T-cell mediated lysis of CEACAM5-expressing LS180 tumor cells” value is 36.1 pM. In assay [3], binding was put at a Kd of 0.562 nM, the koff was found to be 0.000886 s⁻¹, the on-rate (kon) is 1.59e+06 M⁻¹ s⁻¹ and the t1/2 stood at 13 min. In assay [4], the dissociation constant Kd was determined as 0.324 nM, the koff was 0.000675 s⁻¹, the kon stood at 2.08e+06 M⁻¹ s⁻¹ and the t1/2 came to 17.1 min. In assay [5], the “fold higher binding half-life than CD3orig” value is above 3 fold.

B2: anti-CD3 antibody clone P033.078 in monovalent IgG format (antibody)
heavy: not shown
chain: DKTHTCPPCPAPEAAGGPSVFLFPPKPKDTLMISRTPEVTCVVVDVSHEDPEVKFNWYVDGVEVHNAKTKPREEQYNSTYRVVSVLTVLHQDWLNGKEYKCKVSNKALGAPIEKTISKAKGQPREPQVCTLPPSRDELTKNQVSLSCAVKGFYPSDIAVEWESNGQPENNYKTTPPVLDSDGSFFLVSKLTVDKSRWQQGNVFSCSVMHEALHNHYTQKSLSLSP
light: B1 light 2
notes: also called monovalent IgG P033.078
In the case of B2, in [6], the “fold higher binding half-life than CD3orig” value is above 2 fold. Further, in assay [7], the “binding activity [%] after 2 weeks at pH 6.0/40°C” value was found to be 98% and the “binding activity [%] after 2 weeks at pH 7.4/37°C” value was 95%. In assay [8], this molecule came in with a Kd of 0.771 nM, a koff of 0.00133 s⁻¹, a kon of 1.73e+06 M⁻¹ s⁻¹ and a t1/2 of 8.69 min. Besides, in [9], the Kd turned out to be 0.403 nM, the koff was 0.00104 s⁻¹, the on-rate (kon) is 2.6e+06 M⁻¹ s⁻¹ and the t1/2 is 11.1 min.
